From patent US9926349B2, “Chimeric molecule useful in immunotherapy for leishmaniasis, which includes a fragment of the PFR1 protein of leishmania infantum with specific immunodominant epitopes” (priority 2011, dated 2018)

B1: PFR1 protein: PFR1 recombinant protein of L. infantum expressed in a prokaryotic expression system and purified by affinity chromatography (protein, listed as Leishmania infantum)
chain: MMTPEDATGLEAARKQKIHNLKLKTACLENEELVQELHISDWSETQRQKLRGAHEKGEELLASVEVGTKWNLMEAYDLAKLMRVCGLEMSQRELYRPEDKPQFMDIIGVKKVLQDLRQNRNKTRVVSFTQLIDNSIAKMEKVEEELRRSQLDATQLAQVPTRTVKMMEDIMNATQIQNALASTDDQMQTQLAQLEKTNEIQNVAMHDGETQVAEEQMWTKVQLQERLIELLKDKFGLIGKCEEENAQFKEIYEVQKQANQETSQMKDAKRRLRQRCETDLKHIQDAIQKADLEDAEAVKRYPRNKERSERAIKENEEMQEEAWNKIQDLERQLQNLGTDRFDEVKRRIEEVDREEKRRVENAQFLEIAAQHKKLLELTVYNCDLAMRCTGLVEELVSEGCAGVKARYDKTNQDLAALRLEVHKEHLEYFRMLYLTLGSLIYKKEKRLEEIDRNIRLAHIQLEFCVETFDPNAKKHADMKKELYRLRQGVEEELAMLKEKQAAALDDFKESEEALDAAGIEFSHPVDENNEEVLTRRSKMVEYKSHLTKEEEVRIAAEREEIKRARLLRSGGESAAAQITSGSMNADYAASAQLEL
modifications: /mol_type=”protein“ /organism=”Leishmania infantum“; REGION 1..595 ”PFR1 protein aminoacids“; REGION 160..595 ”SEQ ID No 9“; REGION 160..548 ”SEQ ID No 10“; REGION 160..385 ”SEQ ID No 11“; PEPTIDE 103..113 ”SEQ ID No 1“; PEPTIDE 150..159 ”SEQ ID No 2“; PEPTIDE 165..173 ”SEQ ID No 4“; PEPTIDE 204..212 ”SEQ ID No 5“; PEPTIDE 222..230 ”SEQ ID No 6“; PEPTIDE 373..382 ”SEQ ID No 3“

System: alveolar macrophages of naive rat
Assay: Nitric oxide production by alveolar macrophages stimulated with recombinant protein
Type: cell-based
Details: for NO activation in the presence of polymyxin B: plus polymyxin B (LPS activity-induced inhibitor)
Text: FIG. 2. Measurement of Nitric Oxide (NO) concentration in the supernatant of macrophages culture stimulated with lipopolysaccharide (LPS); lipopolysaccharide+polymyxin B (LPS+PolB); purified PFR-1 protein (PFR-1); purified PFR-1 protein+polymyxin B (PFR1+PolB); L-NG-monomethyl arginine citrate (LNMMA); purified PFR-1 protein+L-NG-monomethyl arginine citrate (PFR1+LNMMA). Concentration is expressed in μmol/liter.
PFR1 protein of Leishmania infantum is encompassed within the family of characteristic proteins of paraflagellar rod proteins from kinetoplastids. In FIG. 1, we show the PFR1 recombinant protein of L. infantum expressed in a prokaryotic expression system and purified by affinity chromatography. […] This activation of nitric oxide production confers to the aforementioned protein a relevant immunological feature because NO favors the clearance of the amastigotes of Leishmania that multiply within the host macrophages. In FIG. 2, the values of NO production by these alveolar macrophages are collected by stimulating them with LPS (control) and the PFR1 protein.

| Molecule | NO activation in the presence of polymyxin B | production of nitric oxide (NO) by alveolar macrophages (naive rat alveolar macrophages stimulated with the protein) | NO activation in the presence of LNMMA (plus L-NG-monomethyl arginine, nitric oxide synthase inhibitor) |
| --- | --- | --- | --- |
| lipopolysaccharide [LPS, reference compound] | inhibited by the presence of polymyxin B | – | – |
| B1 | unlike the one detected for PFR1 protein, the activation observed for LPS is inhibited by the presence of polymyxin B | ability to activate the production of nitric oxide (NO) | inhibits the NO activation induced by the PFR1 protein |
